Laboratory results reported in patent US20020173640A1, “ADAM polynucleotides, polypeptides, and antibodies” (Human Genome Sciences, Inc., priority 1999, published 2002).
Square brackets hold non-standard residues; d marks the D form. Peptide text beside a SMILES is read from it. * marks the point of attachment. 4Abz = Nc1ccc(C(=O)O)cc1; NHOH = ON*

Experiments:
[1] = biological target: T1, hADAM-19 (Homo sapiens, UniProt Q9H013); assay: Inhibition of α2-M cleavage by hADAM-19 (SDS-PAGE, silver staining); type: biochemical; conditions: for blockage of hADAM-19 proteolytic activity against α2-M: summary statement, concentration not given
T1 construct: made in house
T1 sequence (Q9H013 26-701 isoform Q9H013-2): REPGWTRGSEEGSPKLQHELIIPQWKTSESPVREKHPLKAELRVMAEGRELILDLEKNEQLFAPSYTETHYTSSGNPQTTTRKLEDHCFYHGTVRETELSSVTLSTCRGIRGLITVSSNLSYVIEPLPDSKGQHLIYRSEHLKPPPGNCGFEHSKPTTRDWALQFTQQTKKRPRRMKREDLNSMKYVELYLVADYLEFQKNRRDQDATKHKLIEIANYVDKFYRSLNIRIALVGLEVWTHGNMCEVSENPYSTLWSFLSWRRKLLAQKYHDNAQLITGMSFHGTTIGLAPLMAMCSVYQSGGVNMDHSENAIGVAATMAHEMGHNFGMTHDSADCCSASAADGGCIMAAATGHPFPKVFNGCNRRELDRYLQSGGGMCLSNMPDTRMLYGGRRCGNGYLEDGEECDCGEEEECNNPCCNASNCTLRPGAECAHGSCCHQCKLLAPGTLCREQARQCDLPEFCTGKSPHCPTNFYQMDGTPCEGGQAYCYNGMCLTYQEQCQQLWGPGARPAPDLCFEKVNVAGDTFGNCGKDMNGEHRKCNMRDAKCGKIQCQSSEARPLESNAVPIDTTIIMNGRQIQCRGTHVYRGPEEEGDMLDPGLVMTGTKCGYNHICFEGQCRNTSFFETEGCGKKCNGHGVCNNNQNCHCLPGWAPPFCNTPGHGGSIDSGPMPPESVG
Procedure: 20 mM EDTA, 20 rmiM EGTA, 10 mM HgCl2, 1 miM TIMP-1,-2 (TIMP: hADAM-19 molar ratio was 100:1) and three commercial (CALBIOCHEM) small molecule human MMP inhibitors were used to inhibit α2-M cleavage by hADAM-19. […] Briefly, different concentrations of those inhibitors were mixed with 7.5 μl of hADAM-19 (50 μg/ml) in 22.9 μl of 1× HEPES buffer (50 mM HEPES, pH 7.5, 0.2 M NaCl, 10 mM CaCl2, 25 μM ZnCl, and 0.05%Brij-35) and incubated at room temperature (24° C.) for 2-hr, then 7.1 μl of substrate α2-M (0.2 unit/ml) were added and incubated at 37° C. for 20-hr. The reactions were stopped by adding 4× sample bufer and boiled immediately for 5 minutes. After SDS-PAGE, the protein bands were visualized by silver staining.

[2] = biological target: MMP-8 (Homo sapiens, UniProt P22894); conditions: commercial (CALBIOCHEM) inhibitor data; read-out: IC50 against MMP-8; cited from earlier work
MMP-8, sequence (P22894 101-467): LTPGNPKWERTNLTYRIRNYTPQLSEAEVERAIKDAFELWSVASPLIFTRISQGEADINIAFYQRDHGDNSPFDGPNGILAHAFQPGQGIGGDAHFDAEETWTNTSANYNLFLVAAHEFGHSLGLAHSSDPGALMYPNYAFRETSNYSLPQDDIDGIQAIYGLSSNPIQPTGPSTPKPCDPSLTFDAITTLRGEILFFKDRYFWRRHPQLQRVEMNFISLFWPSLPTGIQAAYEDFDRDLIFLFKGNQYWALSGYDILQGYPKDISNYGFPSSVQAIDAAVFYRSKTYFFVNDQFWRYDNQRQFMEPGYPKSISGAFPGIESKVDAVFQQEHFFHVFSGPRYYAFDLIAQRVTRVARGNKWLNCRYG

[3] = biological target: MMP-9 (Homo sapiens, UniProt P14780); conditions: commercial (CALBIOCHEM) inhibitor data; read-out: IC50 against MMP-9; cited from earlier work
MMP-9, sequence (P14780 94-707): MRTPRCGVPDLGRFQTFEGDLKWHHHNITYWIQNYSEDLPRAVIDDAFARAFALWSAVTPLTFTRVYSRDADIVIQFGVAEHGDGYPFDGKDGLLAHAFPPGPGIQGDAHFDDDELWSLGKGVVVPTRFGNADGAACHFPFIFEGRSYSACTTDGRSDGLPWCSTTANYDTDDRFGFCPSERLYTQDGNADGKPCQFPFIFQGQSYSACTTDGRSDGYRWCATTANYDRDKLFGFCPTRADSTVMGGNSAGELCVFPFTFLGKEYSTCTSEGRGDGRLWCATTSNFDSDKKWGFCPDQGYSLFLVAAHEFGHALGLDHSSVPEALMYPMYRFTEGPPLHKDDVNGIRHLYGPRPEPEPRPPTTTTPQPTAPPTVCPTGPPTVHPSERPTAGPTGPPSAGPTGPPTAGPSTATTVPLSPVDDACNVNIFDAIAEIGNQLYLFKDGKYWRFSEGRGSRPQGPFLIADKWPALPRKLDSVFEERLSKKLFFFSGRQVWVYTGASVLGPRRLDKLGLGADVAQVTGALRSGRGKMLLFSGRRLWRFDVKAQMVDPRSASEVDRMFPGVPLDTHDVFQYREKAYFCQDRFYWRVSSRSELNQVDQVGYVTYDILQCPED

[4] = biological target: MMP-3 (Homo sapiens, UniProt P08254); conditions: commercial (CALBIOCHEM) inhibitor data; read-out: IC50 against MMP-3; cited from earlier work
MMP-3, sequence (P08254 100-477): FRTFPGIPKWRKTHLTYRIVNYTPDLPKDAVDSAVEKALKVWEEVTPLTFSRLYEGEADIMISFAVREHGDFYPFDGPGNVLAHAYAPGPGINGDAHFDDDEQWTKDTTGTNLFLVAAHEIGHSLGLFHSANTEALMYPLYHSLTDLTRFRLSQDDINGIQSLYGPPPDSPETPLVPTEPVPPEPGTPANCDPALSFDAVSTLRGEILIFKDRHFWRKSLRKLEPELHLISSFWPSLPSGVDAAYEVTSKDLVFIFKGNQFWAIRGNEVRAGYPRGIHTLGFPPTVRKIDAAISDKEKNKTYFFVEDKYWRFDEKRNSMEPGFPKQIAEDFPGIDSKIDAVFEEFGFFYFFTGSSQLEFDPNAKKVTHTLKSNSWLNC

[5] = biological target: MMP-1 (Homo sapiens, UniProt P03956); conditions: commercial (CALBIOCHEM) inhibitor data; read-out: IC50 against MMP-1; cited from earlier work
MMP-1, sequence (P03956 100-469): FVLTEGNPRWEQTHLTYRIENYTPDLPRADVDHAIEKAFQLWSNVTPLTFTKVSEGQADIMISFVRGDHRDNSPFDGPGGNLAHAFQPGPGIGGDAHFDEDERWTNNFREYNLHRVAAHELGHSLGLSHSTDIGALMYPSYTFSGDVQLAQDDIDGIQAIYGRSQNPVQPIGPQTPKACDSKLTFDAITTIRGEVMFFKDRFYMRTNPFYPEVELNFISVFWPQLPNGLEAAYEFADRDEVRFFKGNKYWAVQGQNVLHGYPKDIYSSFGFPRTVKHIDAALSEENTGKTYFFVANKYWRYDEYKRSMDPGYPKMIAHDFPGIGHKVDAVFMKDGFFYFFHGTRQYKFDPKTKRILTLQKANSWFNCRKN

[6] = tested on: HIV; conditions: greater activity than its predecessor delavirdine; cited from earlier work
[7] = tested on: viruses containing the K103N mutation; conditions: cited from earlier work
[8] = biological target: T2, Bovine plasma alpha-2-macroglobulin (UniProt Q7SIH1)
T2 sequence: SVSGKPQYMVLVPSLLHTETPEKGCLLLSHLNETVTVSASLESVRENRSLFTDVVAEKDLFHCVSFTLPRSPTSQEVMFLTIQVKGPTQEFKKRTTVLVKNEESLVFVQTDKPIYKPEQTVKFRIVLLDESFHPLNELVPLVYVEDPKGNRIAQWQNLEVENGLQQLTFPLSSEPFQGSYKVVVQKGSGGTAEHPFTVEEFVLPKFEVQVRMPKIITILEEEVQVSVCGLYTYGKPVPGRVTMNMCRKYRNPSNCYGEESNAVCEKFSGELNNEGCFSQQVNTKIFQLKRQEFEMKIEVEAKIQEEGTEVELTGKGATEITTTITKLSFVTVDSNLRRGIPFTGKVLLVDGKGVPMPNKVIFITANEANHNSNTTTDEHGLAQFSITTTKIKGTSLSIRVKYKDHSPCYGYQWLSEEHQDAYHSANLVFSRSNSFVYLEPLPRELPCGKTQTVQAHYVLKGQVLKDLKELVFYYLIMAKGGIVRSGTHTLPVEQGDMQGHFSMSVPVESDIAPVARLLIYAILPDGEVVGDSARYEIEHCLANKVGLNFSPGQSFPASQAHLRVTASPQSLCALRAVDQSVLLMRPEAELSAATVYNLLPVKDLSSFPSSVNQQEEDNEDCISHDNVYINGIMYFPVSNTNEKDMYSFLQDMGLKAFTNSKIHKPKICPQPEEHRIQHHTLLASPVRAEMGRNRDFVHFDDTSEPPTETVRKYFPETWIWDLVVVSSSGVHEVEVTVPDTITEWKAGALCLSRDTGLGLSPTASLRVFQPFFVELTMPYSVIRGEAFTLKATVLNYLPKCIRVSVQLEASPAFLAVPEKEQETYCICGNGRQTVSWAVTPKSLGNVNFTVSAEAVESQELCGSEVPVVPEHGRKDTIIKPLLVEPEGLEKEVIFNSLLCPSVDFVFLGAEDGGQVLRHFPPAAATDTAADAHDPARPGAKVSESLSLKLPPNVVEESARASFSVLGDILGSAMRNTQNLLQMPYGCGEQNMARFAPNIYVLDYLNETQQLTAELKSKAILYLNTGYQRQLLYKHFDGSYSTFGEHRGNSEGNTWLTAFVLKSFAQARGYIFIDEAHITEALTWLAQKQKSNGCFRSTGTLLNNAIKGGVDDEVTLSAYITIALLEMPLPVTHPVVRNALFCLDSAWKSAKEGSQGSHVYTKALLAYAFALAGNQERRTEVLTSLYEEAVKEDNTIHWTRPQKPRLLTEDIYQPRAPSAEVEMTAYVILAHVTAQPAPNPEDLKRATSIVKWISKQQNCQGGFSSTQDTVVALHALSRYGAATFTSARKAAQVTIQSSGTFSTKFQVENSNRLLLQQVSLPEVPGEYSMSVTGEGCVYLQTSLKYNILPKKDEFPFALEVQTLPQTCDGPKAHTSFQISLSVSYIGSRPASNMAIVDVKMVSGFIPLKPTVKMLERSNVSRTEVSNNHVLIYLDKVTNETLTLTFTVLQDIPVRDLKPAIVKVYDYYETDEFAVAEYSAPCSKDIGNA

[9] = biological target: Mca fluorogenic peptide substrate M-2225
[10] = biological target: T3, Bovine plasma alpha-2-macroglobulin, Q7SIH1
T3 chain: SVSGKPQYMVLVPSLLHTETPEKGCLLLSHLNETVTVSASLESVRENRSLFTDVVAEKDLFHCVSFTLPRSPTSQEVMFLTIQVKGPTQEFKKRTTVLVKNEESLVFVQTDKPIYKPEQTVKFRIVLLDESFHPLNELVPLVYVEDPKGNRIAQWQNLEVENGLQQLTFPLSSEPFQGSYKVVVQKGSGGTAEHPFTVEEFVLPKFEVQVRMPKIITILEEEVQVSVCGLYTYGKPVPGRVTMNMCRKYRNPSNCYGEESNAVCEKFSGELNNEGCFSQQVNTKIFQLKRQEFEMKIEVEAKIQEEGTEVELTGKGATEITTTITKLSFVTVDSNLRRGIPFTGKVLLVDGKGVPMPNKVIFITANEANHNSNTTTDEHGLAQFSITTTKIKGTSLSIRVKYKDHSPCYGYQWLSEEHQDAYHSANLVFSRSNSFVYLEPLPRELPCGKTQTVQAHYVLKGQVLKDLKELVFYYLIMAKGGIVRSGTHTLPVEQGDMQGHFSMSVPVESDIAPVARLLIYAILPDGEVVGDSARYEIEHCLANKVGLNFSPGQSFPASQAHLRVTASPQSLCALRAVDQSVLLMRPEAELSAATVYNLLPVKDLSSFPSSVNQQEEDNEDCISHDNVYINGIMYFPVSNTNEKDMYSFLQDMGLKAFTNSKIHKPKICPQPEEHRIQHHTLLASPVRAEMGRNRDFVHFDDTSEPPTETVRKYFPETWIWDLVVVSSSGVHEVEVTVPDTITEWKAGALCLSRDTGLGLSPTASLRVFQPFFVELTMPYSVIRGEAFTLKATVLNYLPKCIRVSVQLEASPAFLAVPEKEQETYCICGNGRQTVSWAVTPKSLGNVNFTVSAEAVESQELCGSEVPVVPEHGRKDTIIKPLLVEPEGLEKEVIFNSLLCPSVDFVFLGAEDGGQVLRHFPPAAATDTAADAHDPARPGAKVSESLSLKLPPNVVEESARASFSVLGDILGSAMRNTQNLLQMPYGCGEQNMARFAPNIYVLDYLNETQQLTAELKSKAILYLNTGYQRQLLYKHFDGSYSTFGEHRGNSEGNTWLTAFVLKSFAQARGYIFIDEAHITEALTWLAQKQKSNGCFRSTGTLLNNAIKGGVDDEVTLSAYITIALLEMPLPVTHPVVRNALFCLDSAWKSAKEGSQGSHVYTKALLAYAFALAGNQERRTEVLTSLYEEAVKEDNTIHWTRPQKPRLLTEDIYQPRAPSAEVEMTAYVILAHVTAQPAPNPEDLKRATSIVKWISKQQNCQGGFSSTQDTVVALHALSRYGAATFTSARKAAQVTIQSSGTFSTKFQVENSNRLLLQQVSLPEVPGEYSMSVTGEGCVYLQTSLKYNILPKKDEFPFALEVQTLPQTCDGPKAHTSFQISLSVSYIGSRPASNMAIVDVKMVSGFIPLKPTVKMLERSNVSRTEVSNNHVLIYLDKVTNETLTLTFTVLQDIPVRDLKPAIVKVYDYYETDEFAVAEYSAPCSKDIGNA

[11] = biological target: rat tail tendon type I gelatin
[12] = biological target: Mca fluorogenic peptide substrate M-2105
[13] = biological target: Mca fluorogenic peptide substrate M-2110
[14] = biological target: bovine casein
[15] = biological target: Mca fluorogenic peptide substrate M-1985
[16] = biological target: Mca fluorogenic peptide substrate M-2255

With [Cl][Hg][Cl] [HgCl2] the “blockage of hADAM-19 digestion of α2-M” value ([1]; 10 mM inhibitor) was “completely blocked” and the “blockage of hADAM-19 proteolytic activity against α2-M” value [1] was “blocked completely”.

In the case of CC(C)C[C@@H](NC(=O)[C@@H]1CCCN1C(=O)CNC(=O)c1ccc(N)cc1)C(=O)N[C@H](C)C(=O)NO [MMP inhibitor I] (H-[4Abz]GP[dL][dA]-{NHOH}), the “blockage of hADAM-19 digestion of α2-M” value ([1]; 1 mM inhibitor) is listed as “did not block”, the IC50 [2] is listed as 1 µM and the IC50 [3] is listed as 30 µM. The IC50 [4] was 150 µM and the IC50 [5] was 1 µM.

With COc1ccc(S(=O)(=O)N(CC(=O)NO)CC(C)C)cc1 [MMP-3 inhibitor II, N-Isobutyl-N-(4-methoxyphenylsulfonyl)-glycylhydroxamic acid] the “blockage of hADAM-19 digestion of α2-M” value ([1]; 100 µM inhibitor) was “partially blocked” and the “blockage of hADAM-19 digestion of α2-M” value ([1]; 1 mM inhibitor) was “partially blocked”.

For C[C@H](Sc1nc(N)cc(Cl)n1)c1cc2ccoc2cn1 [PNU-142721], the “activity relative to delavirdine” value [6] is listed as 20- to 50 fold and the “activity against K103N mutants” value [7] is listed as “active against K103N mutants”.

With “TIMP-1: tissue inhibitor of metalloproteinases” the “blockage of hADAM-19 digestion of α2-M” value ([1]; TIMP:hADAM-19 molar ratio of 100:1) was “Neither TIMP-1 or TIMP-2 at TIMP:hADAM-1 9 molar ratio of 100:1 were able to block” and the “blockage of hADAM-19 proteolytic activity against α2-M” value [1] was “not blocked”.

For Trypsin, the “cleavage of α2-M (SDS-PAGE, silver staining)” value [8] was “Trypsin was used as a positive proteinase control to cleave α2-M and it generated a 72 kDa major band and a 35 kDa minor band”.

B1: Flag-tagged hADAM-19 protein (residues 26-701 of SEQ ID NO: 9) (protein)
chain: REPGWTRGSEEGSPKLQHELIIPQWKTSESPVREKHPLKAELRVMAEGRELILDLEKNEQLFAPSYTETHYTSSGNPQTTTRKLEDHCFYHGTVRETELSSVTLSTCRGIRGLITVSSNLSYVIEPLPDSKGQHLIYRSEHLKPPPGNCGFEHSKPTTRDWALQFTQQTKKRPRRMKREDLNSMKYVELYLVADYLEFQKNRRDQDATKHKLIEIANYVDKFYRSLNIRIALVGLEVWTHGNMCEVSENPYSTLWSFLSWRRKLLAQKYHDNAQLITGMSFHGTTIGLAPLMAMCSVYQSGGVNMDHSENAIGVAATMAHEMGHNFGMTHDSADCCSASAADGGCIMAAATGHPFPKVFNGCNRRELDRYLQSGGGMCLSNMPDTRMLYGGRRCGNGYLEDGEECDCGEEEECNNPCCNASNCTLRPGAECAHGSCCHQCKLLAPGTLCREQARQCDLPEFCTGKSPHCPTNFYQMDGTPCEGGQAYCYNGMCLTYQEQCQQLWGPGARPAPDLCFEKVNVAGDTFGNCGKDMNGEHRKCNMRDAKCGKIQCQSSEARPLESNAVPIDTTIIMNGRQIQCRGTHVYRGPEEEGDMLDPGLVMTGTKCGYNHICFEGQCRNTSFFETEGCGKKCNGHGVCNNNQNCHCLPGWAPPFCNTPGHGGSIDSGPMPPESVG
For B1, the “fluorogenic peptide substrate cleavage” value [9] was “Neither were the 5 different synthetic fluorogenic peptide substrates listed in the Materials and Methods”, the “cleavage of α2-M (SDS-PAGE, silver staining)” value [10] was “Human hADAM-19 cleaved α2-M to yield new bands of 105 kDa and a 72 kDa” and the “proteolysis of alpha-2 macroglobulin” value [10] was “a polypeptide corresponding to this gene displayed metal-dependant proteolysis of alpha-2 macroglobulin”. For the same molecule, the substrate digestion [11] was “rat tail tendon type I gelatin and bovine casein, were not dissolved by hADAM-19”, the “fluorogenic peptide substrate cleavage” value [12] was “Neither were the 5 different synthetic fluorogenic peptide substrates listed in the Materials and Methods” and the “fluorogenic peptide substrate cleavage” value [13] was “Neither were the 5 different synthetic fluorogenic peptide substrates listed in the Materials and Methods”. For the same molecule, the substrate digestion [14] was “rat tail tendon type I gelatin and bovine casein, were not dissolved by hADAM-19”, the “fluorogenic peptide substrate cleavage” value [15] was “Neither were the 5 different synthetic fluorogenic peptide substrates listed in the Materials and Methods” and the “fluorogenic peptide substrate cleavage” value [16] was “Neither were the 5 different synthetic fluorogenic peptide substrates listed in the Materials and Methods”.
